# B1: E3 ubiquitin-protein ligase COP1 (Arabidopsis thaliana (Mouse-ear cress)), P43254 (parent)
# chain: MEEISTDPVVPAVKPDPRTSSVGEGANRHENDDGGSGGSEIGAPDLDKDLLCPICMQIIKDAFLTACGHSFCYMCIITHLRNKSDCPCCSQHLTNNQLYPNFLLDKLLKKTSARHVSKTASPLDQFREALQRGCDVSIKEVDNLLTLLAERKRKMEQEEAERNMQILLDFLHCLRKQKVDELNEVQTDLQYIKEDINAVERHRIDLYRARDRYSVKLRMLGDDPSTRNAWPHEKNQIGFNSNSLSIRGGNFVGNYQNKKVEGKAQGSSHGLPKKDALSGSDSQSLNQSTVSMARKKRIHAQFNDLQECYLQKRRQLADQPNSKQENDKSVVRREGYSNGLADFQSVLTTFTRYSRLRVIAEIRHGDIFHSANIVSSIEFDRDDELFATAGVSRCIKVFDFSSVVNEPADMQCPIVEMSTRSKLSCLSWNKHEKNHIASSDYEGIVTVWDVTTRQSLMEYEEHEKRAWSVDFSRTEPSMLVSGSDDCKVKVWCTRQEASVINIDMKANICCVKYNPGSSNYIAVGSADHHIHYYDLRNISQPLHVFSGHKKAVSYVKFLSNNELASASTDSTLRLWDVKDNLPVRTFRGHTNEKNFVGLTVNSEYLACGSETNEVYVYHKEITRPVTSHRFGSPDMDDAEEEAGSYFISAVCWKSDSPTMLTANSQGTIKVLVLAA
# B2: Cryptochrome-1 (Arabidopsis thaliana (Mouse-ear cress)), Q43125 (parent)
# chain: MSGSVSGCGSGGCSIVWFRRDLRVEDNPALAAAVRAGPVIALFVWAPEEEGHYHPGRVSRWWLKNSLAQLDSSLRSLGTCLITKRSTDSVASLLDVVKSTGASQIFFNHLYDPLSLVRDHRAKDVLTAQGIAVRSFNADLLYEPWEVTDELGRPFSMFAAFWERCLSMPYDPESPLLPPKKIISGDVSKCVADPLVFEDDSEKGSNALLARAWSPGWSNGDKALTTFINGPLLEYSKNRRKADSATTSFLSPHLHFGEVSVRKVFHLVRIKQVAWANEGNEAGEESVNLFLKSIGLREYSRYISFNHPYSHERPLLGHLKFFPWAVDENYFKAWRQGRTGYPLVDAGMRELWATGWLHDRIRVVVSSFFVKVLQLPWRWGMKYFWDTLLDADLESDALGWQYITGTLPDSREFDRIDNPQFEGYKFDPNGEYVRRWLPELSRLPTDWIHHPWNAPESVLQAAGIELGSNYPLPIVGLDEAKARLHEALSQMWQLEAASRAAIENGSEEGLGDSAEVEEAPIEFPRDITMEETEPTRLNPNRRYEDQMVPSITSSLIRPEEDEESSLNLRNSVGDSRAEVPRNMVNTNQAQQRRAEPASNQVTAMIPEFNIRIVAESTEDSTAESSSSGRRERSGGIVPEWSPGYSEQFPSEENGIGGGSTTSSYLQNHHEILNWRRLSQTG
# partner: B1 chain
# Variants of: B1
# Settings: with cry1_arath CRY1, Q43125
row,Variant,effect of a mutation on the interaction
1,K422E,decreasing interaction
2,G524E,decreasing interaction
3,W467A,decreasing interaction

# Next, values leading:
row,effect of a mutation on the interaction,Variant
1,decreasing interaction,E592R
2,decreasing interaction,R465E
3,decreasing interaction,K550E

# Variants of: B2
# Settings: with cop1_arath COP1, P43254
row,Variant,effect of a mutation on the interaction
1,R581K,decreasing interaction
2,R611K,decreasing interaction
3,E515K,decreasing interaction

# Other lines, results leading:
row,effect of a mutation on the interaction,Variant
1,decreasing interaction,E531K
2,decreasing interaction,R576K
3,decreasing interaction,P549L
4,disrupting interaction,E559K

# Source: IntAct's records for PubMed 11752373
